Results from PMC3409459, “Absorption, distribution, metabolism and excretion of peginesatide, a novel erythropoiesis-stimulating agent, in rats” (Xenobiotica; the Fate of Foreign Compounds in Biological …, 2011).

Assay: Tissue distribution of radioactivity by LSC following combustion, albino rats
Format: in vivo, male Sprague-Dawley (albino) rats
Details: for Concentration of the radioactivity, Pituitary / Concentration of the radioactivity, Plasma / Concentration of the radioactivity, Skeletal muscle / Concentration of the radioactivity, Skin / Concentration of the radioactivity, Spinal cord / Concentration of the radioactivity, Spleen / Concentration of the radioactivity, Stomach / Concentration of the radioactivity, Submandibular lymph nodes / Concentration of the radioactivity, Testes / Concentration of the radioactivity, Thymus / Concentration of the radioactivity, Thyroid gland / Concentration of the radioactivity, Urinary bladder / Concentration of the radioactivity, Adrenals / Concentration of the radioactivity, Blood / Concentration of the radioactivity, Bone (femur) / Concentration of the radioactivity, Bone marrow / Concentration of the radioactivity, Brain / Concentration of the radioactivity, Eyes / Concentration of the radioactivity, Fat / Concentration of the radioactivity, Harderian glands / Concentration of the radioactivity, Heart / Concentration of the radioactivity, Intestine / Concentration of the radioactivity, Kidneys / Concentration of the radioactivity, Liver / Concentration of the radioactivity, Lungs / Concentration of the radioactivity, Pancreas: mean ± SD, n=3; for tissue to plasma ratios: single IV 5 mg·kg^−1
Method: Total captured radioactivity was subsequently measured via LSC.
Male Sprague-Dawley (albino) rats (n = 21; three per time point) were administered a single IV dose of 5 mg·kg^−1 [^14C]-peginesatide (27.5 μCi/kg) and tissue concentrations of radioactivity determined at 0.25, 6, and 24 h, and 7,14,30 and 60 days following dosing. Similarly, male Long Evans (pigmented) rats (n = 21; three per time point) were administered a single IV dose of 5 mg-kg^−1 [^14C]-peginesatide and plasma, skin, and eye concentrations of radioactivity were measured at the various time points through 60 days after dosing. At each time point, blood was collected, the animals sacrificed, and tissues excised. Tissues collected from the Sprague-Dawley rats included blood, plasma, adrenals, bone marrow, brain, eyes, fat, femur, Harderian glands, heart, hypophysis, intestine, kidneys, lungs, liver, pancreas, skeletal muscle, skin, spinal cord, spleen, stomach, submaxillary glands, testes, thymus, thyroid gland, and urinary bladder. Plasma, eyes, non-pigmented skin, and pigmented skin were collected from Long Evans rats. All tissue samples were measured for radioactivity by LSC following combustion. The liver and intestine were first homogenized in distilled water (20% w/v) prior to analysis. The concentration of radioactivity in the blood, plasma, and tissues was calculated and expressed as ug equiv·g^-1 or mLbased on the LSC counts and the specific activity of the dosing solution.

[1] = 60 Days after single IV 5 mg·kg^−1, LSC
[2] = 0.25 h after single IV 5 mg·kg^−1, LSC
[3] = 6 h after single IV 5 mg·kg^−1, LSC
[4] = 24 h after single IV 5 mg·kg^−1, LSC

Peginesatide
Concentration of the radioactivity, Pituitary [1]: 4.32 ± 0.289 μg equiv·g^−1 or mL | Concentration of the radioactivity, Plasma [1]: 0.232 ± 0.042 μg equiv·g^−1 or mL | Concentration of the radioactivity, Skeletal muscle [1]: 0.085 ± 0.021 μg equiv·g^−1 or mL | Concentration of the radioactivity, Skin [1]: 0.394 ± 0.080 μg equiv·g^−1 or mL | Concentration of the radioactivity, Spinal cord [1]: 0.036 ± 0.018 μg equiv·g^−1 or mL | Concentration of the radioactivity, Spleen [1]: 3.40 ± 0.480 μg equiv·g^−1 or mL | Concentration of the radioactivity, Stomach [1]: 0.590 ± 0.242 μg equiv·g^−1 or mL | Concentration of the radioactivity, Submandibular lymph nodes [1]: 8.74 ± 1.22 μg equiv·g^−1 or mL | Concentration of the radioactivity, Testes [1]: 5.10 ± 2.17 μg equiv·g^−1 or mL | Concentration of the radioactivity, Thymus [1]: 1.15 ± 0.155 μg equiv·g^−1 or mL | Concentration of the radioactivity, Thyroid gland [1]: 8.03 ± 1.45 μg equiv·g^−1 or mL | Concentration of the radioactivity, Urinary bladder [1]: 0.967 ± 0.188 μg equiv·g^−1 or mL | Concentration of the radioactivity, Adrenals [2]: 8.45 ± 0.517 μg equiv·g^−1 or mL | Concentration of the radioactivity, Blood [2]: 80.9 ± 1.90 μg equiv·g^−1 or mL | Concentration of the radioactivity, Bone (femur) [2]: 1.95 ± 0.128 μg equiv·g^−1 or mL | Concentration of the radioactivity, Bone marrow [2]: 9.66 ± 0.367 μg equiv·g^−1 or mL | Concentration of the radioactivity, Brain [2]: 1.18 ± 0.030 μg equiv·g^−1 or mL | Concentration of the radioactivity, Eyes [2]: 0.346 ± 0.029 μg equiv·g^−1 or mL | Concentration of the radioactivity, Fat [2]: 0.861 ± 0.096 μg equiv·g^−1 or mL | Concentration of the radioactivity, Harderian glands [2]: 1.15 ± 0.357 μg equiv·g^−1 or mL | Concentration of the radioactivity, Heart [2]: 6.33 ± 0.512 μg equiv·g^−1 or mL | Concentration of the radioactivity, Intestine [2]: 1.47 ± 0.158 μg equiv·g^−1 or mL | Concentration of the radioactivity, Kidneys [2]: 11.2 ± 1.48 μg equiv·g^−1 or mL | Concentration of the radioactivity, Liver [2]: 7.03 ± 0.613 μg equiv·g^−1 or mL | Concentration of the radioactivity, Lungs [2]: 8.46 ± 0.824 μg equiv·g^−1 or mL | Concentration of the radioactivity, Pancreas [2]: 2.56 ± 0.036 μg equiv·g^−1 or mL | Concentration of the radioactivity, Pituitary [2]: 13.2 ± 1.08 μg equiv·g^−1 or mL | Concentration of the radioactivity, Plasma [2]: 131 ± 3.86 μg equiv·g^−1 or mL | Concentration of the radioactivity, Skeletal muscle [2]: 0.569 ± 0.100 μg equiv·g^−1 or mL | Concentration of the radioactivity, Skin [2]: 0.376 ± 0.103 μg equiv·g^−1 or mL | Concentration of the radioactivity, Spinal cord [2]: 0.909 ± 0.289 μg equiv·g^−1 or mL | Concentration of the radioactivity, Spleen [2]: 4.62 ± 0.185 μg equiv·g^−1 or mL | Concentration of the radioactivity, Stomach [2]: 1.32 ± 0.257 μg equiv·g^−1 or mL | Concentration of the radioactivity, Submandibular lymph nodes [2]: 2.57 ± 0.038 μg equiv·g^−1 or mL | Concentration of the radioactivity, Testes [2]: 1.14 ± 0.083 μg equiv·g^−1 or mL | Concentration of the radioactivity, Thymus [2]: 0.669 ± 0.115 μg equiv·g^−1 or mL | Concentration of the radioactivity, Thyroid gland [2]: 8.25 ± 1.42 μg equiv·g^−1 or mL | Concentration of the radioactivity, Urinary bladder [2]: 2.40 ± 1.32 μg equiv·g^−1 or mL | Concentration of the radioactivity, Adrenals [3]: 7.83 ± 1.38 μg equiv·g^−1 or mL | Concentration of the radioactivity, Blood [3]: 60.9 ± 4.36 μg equiv·g^−1 or mL | Concentration of the radioactivity, Bone (femur) [3]: 1.53 ± 0.555 μg equiv·g^−1 or mL | Concentration of the radioactivity, Bone marrow [3]: 8.66 ± 2.79 μg equiv·g^−1 or mL | Concentration of the radioactivity, Brain [3]: 0.939 ± 0.015 μg equiv·g^−1 or mL | Concentration of the radioactivity, Eyes [3]: 0.779 ± 0.168 μg equiv·g^−1 or mL | Concentration of the radioactivity, Fat [3]: 0.923 ± 0.308 μg equiv·g^−1 or mL | Concentration of the radioactivity, Harderian glands [3]: 1.91 ± 0.183 μg equiv·g^−1 or mL | Concentration of the radioactivity, Heart [3]: 7.71 ± 1.29 μg equiv·g^−1 or mL | Concentration of the radioactivity, Intestine [3]: 3.07 ± 0.233 μg equiv·g^−1 or mL | Concentration of the radioactivity, Kidneys [3]: 10.6 ± 1.16 μg equiv·g^−1 or mL | Concentration of the radioactivity, Liver [3]: 7.51 ± 0.438 μg equiv·g^−1 or mL | Concentration of the radioactivity, Lungs [3]: 8.37 ± 1.27 μg equiv·g^−1 or mL | Concentration of the radioactivity, Pancreas [3]: 3.83 ± 0.582 μg equiv·g^−1 or mL | Concentration of the radioactivity, Pituitary [3]: 13.9 ± 2.71 μg equiv·g^−1 or mL | Concentration of the radioactivity, Plasma [3]: 99.6 ± 2.94 μg equiv·g^−1 or mL | Concentration of the radioactivity, Skeletal muscle [3]: 0.447 ± 0.037 μg equiv·g^−1 or mL | Concentration of the radioactivity, Skin [3]: 1.41 ± 0.175 μg equiv·g^−1 or mL | Concentration of the radioactivity, Spinal cord [3]: 0.662 ± 0.070 μg equiv·g^−1 or mL | Concentration of the radioactivity, Spleen [3]: 5.51 ± 0.776 μg equiv·g^−1 or mL | Concentration of the radioactivity, Stomach [3]: 2.69 ± 0.013 μg equiv·g^−1 or mL | Concentration of the radioactivity, Submandibular lymph nodes [3]: 4.25 ± 0.140 μg equiv·g^−1 or mL | Concentration of the radioactivity, Testes [3]: 4.01 ± 0.254 μg equiv·g^−1 or mL | Concentration of the radioactivity, Thymus [3]: 1.02 ± 0.040 μg equiv·g^−1 or mL | Concentration of the radioactivity, Thyroid gland [3]: 10.1 ± 1.79 μg equiv·g^−1 or mL | Concentration of the radioactivity, Urinary bladder [3]: 3.53 ± 0.234 μg equiv·g^−1 or mL | Concentration of the radioactivity, Adrenals [4]: 10.0 ± 1.15 μg equiv·g^−1 or mL | Concentration of the radioactivity, Blood [4]: 39.7 ± 2.51 μg equiv·g^−1 or mL | Concentration of the radioactivity, Bone (femur) [4]: 1.16 ± 0.177 μg equiv·g^−1 or mL | Concentration of the radioactivity, Bone marrow [4]: 8.50 ± 1.23 μg equiv·g^−1 or mL | Concentration of the radioactivity, Brain [4]: 0.646 ± 0.050 μg equiv·g^−1 or mL | Concentration of the radioactivity, Eyes [4]: 0.806 ± 0.063 μg equiv·g^−1 or mL | Concentration of the radioactivity, Fat [4]: 1.65 ± 0.392 μg equiv·g^−1 or mL | Concentration of the radioactivity, Harderian glands [4]: 2.55 ± 0.105 μg equiv·g^−1 or mL | Concentration of the radioactivity, Heart [4]: 6.28 ± 0.256 μg equiv·g^−1 or mL | Concentration of the radioactivity, Intestine [4]: 3.10 ± 0.144 μg equiv·g^−1 or mL | Concentration of the radioactivity, Kidneys [4]: 8.75 ± 1.47 μg equiv·g^−1 or mL | Concentration of the radioactivity, Liver [4]: 9.26 ± 0.516 μg equiv·g^−1 or mL | Concentration of the radioactivity, Lungs [4]: 7.22 ± 0.464 μg equiv·g^−1 or mL | Concentration of the radioactivity, Pancreas [4]: 5.14 ± 0.582 μg equiv·g^−1 or mL | Concentration of the radioactivity, Pituitary [4]: 13.7 ± 2.02 μg equiv·g^−1 or mL | Concentration of the radioactivity, Plasma [4]: 64.1 ± 5.12 μg equiv·g^−1 or mL | Concentration of the radioactivity, Skeletal muscle [4]: 0.584 ± 0.044 μg equiv·g^−1 or mL | Concentration of the radioactivity, Skin [4]: 3.29 ± 0.308 μg equiv·g^−1 or mL | Concentration of the radioactivity, Spinal cord [4]: 0.442 ± 0.090 μg equiv·g^−1 or mL | Concentration of the radioactivity, Spleen [4]: 10.2 ± 1.04 μg equiv·g^−1 or mL | Concentration of the radioactivity, Stomach [4]: 3.01 ± 0.168 μg equiv·g^−1 or mL | Concentration of the radioactivity, Submandibular lymph nodes [4]: 5.72 ± 0.303 μg equiv·g^−1 or mL | Concentration of the radioactivity, Testes [4]: 4.15 ± 0.605 μg equiv·g^−1 or mL | Concentration of the radioactivity, Thymus [4]: 1.90 ± 0.201 μg equiv·g^−1 or mL | Concentration of the radioactivity, Thyroid gland [4]: 10.2 ± 1.10 μg equiv·g^−1 or mL | Concentration of the radioactivity, Urinary bladder [4]: 6.18 ± 0.260 μg equiv·g^−1 or mL | tissue to plasma ratios (after 24 h, in most tissues): > 1 | tissue to plasma ratios (through at least 24 h after dosing): < 1
